Consider 11 substances from article PMC2250751.

Test [1] concerns the target D90A SOD1 (human) (UniProt P00441). Put plainly: SEC; metal-free (apo) form at time zero, before incubation; gel filtration chromatography.
The target is the same in test [2]. Put plainly: SEC; zinc-reconstituted form; gel filtration chromatography; 100 µM (as dimer), 20 mM phosphate pH 7; no larger species also after more than a month at 37°C.
The target of test [3] is G93A SOD1 (human) (UniProt P00441). Put plainly: SEC; metal-free (apo) form at time zero, before incubation; gel filtration chromatography.
The target is the same in test [4]. Put plainly: SEC; zinc-reconstituted form; gel filtration chromatography; 100 µM (as dimer), 20 mM phosphate pH 7; no larger species also after more than a month at 37°C.
Test [5] has as its target G93D SOD1 (human) (UniProt P00441). Put plainly: SEC; metal-free (apo) form at time zero, before incubation; gel filtration chromatography.
Test [6] shares this target. The experiment in a line: SEC; zinc-reconstituted form; gel filtration chromatography; 100 µM (as dimer), 20 mM phosphate pH 7; no larger species also after more than a month at 37°C.
The target of test [7] is I35T SOD1 (human) (UniProt P00441). The experiment in a line: SEC; metal-free (apo) form at time zero, before incubation; gel filtration chromatography.
For test [8] the target is unchanged. The experiment in a line: SEC; zinc-reconstituted form; gel filtration chromatography; 100 µM (as dimer), 20 mM phosphate pH 7; no larger species also after more than a month at 37°C.
Test [9] deals with I113F SOD1 (human) (UniProt P00441). Put plainly: SEC; metal-free (apo) form at time zero, before incubation; gel filtration chromatography.
Test [10] has the same target. Put plainly: SEC; zinc-reconstituted form; gel filtration chromatography; 100 µM (as dimer), 20 mM phosphate pH 7; no larger species also after more than a month at 37°C.
Test [11] deals with I113T SOD1 (human) (UniProt P00441). The experiment in a line: SEC; metal-free (apo) form at time zero, before incubation; gel filtration chromatography.
Test [12] has the same target. Put plainly: SEC; zinc-reconstituted form; gel filtration chromatography; 100 µM (as dimer), 20 mM phosphate pH 7; no larger species also after more than a month at 37°C.
In test [13] the target is L67V SOD1 (human) (UniProt P00441). The experiment in a line: SEC; metal-free (apo) form at time zero, before incubation; gel filtration chromatography.
The target is the same in test [14]. The experiment in a line: SEC; zinc-reconstituted form; gel filtration chromatography; 100 µM (as dimer), 20 mM phosphate pH 7; no larger species also after more than a month at 37°C.
In test [15] the target is L144F SOD1 (human) (UniProt P00441). Put plainly: SEC; metal-free (apo) form at time zero, before incubation; gel filtration chromatography.
For test [16] the target is unchanged. Put plainly: SEC; zinc-reconstituted form; gel filtration chromatography; 100 µM (as dimer), 20 mM phosphate pH 7; no larger species also after more than a month at 37°C.
The target of test [17] is T54R SOD1 (human) (UniProt P00441). Put plainly: SEC; metal-free (apo) form at time zero, before incubation; gel filtration chromatography.
The target is the same in test [18]. Put plainly: SEC; zinc-reconstituted form; gel filtration chromatography; 100 µM (as dimer), 20 mM phosphate pH 7; no larger species also after more than a month at 37°C.
Test [19] has as its target V87M SOD1 (human) (UniProt P00441). Put plainly: SEC; metal-free (apo) form at time zero, before incubation; gel filtration chromatography.
The target is the same in test [20]. The experiment in a line: SEC; zinc-reconstituted form; gel filtration chromatography; 100 µM (as dimer), 20 mM phosphate pH 7; no larger species also after more than a month at 37°C.
For test [21], the target named is V97M SOD1 (human) (UniProt P00441). Put plainly: SEC; metal-free (apo) form at time zero, before incubation; gel filtration chromatography.
The target is the same in test [22]. Put plainly: SEC; zinc-reconstituted form; gel filtration chromatography; 100 µM (as dimer), 20 mM phosphate pH 7; no larger species also after more than a month at 37°C.

Turning to “D90A SOD1 (from UniProt P00441 8-154) (enzyme)”, the stoichiometry N with D90A SOD1 (human) [1] and in the test with D90A SOD1 (human) [2] was 2 in each case.
With “G93A SOD1 (from UniProt P00441 8-154) (enzyme)”, the stoichiometry N with G93A SOD1 (human) [3] and with G93A SOD1 (human) [4] was 2 throughout.
“G93D SOD1 (from UniProt P00441 8-154) (enzyme)”: the stoichiometry N with G93D SOD1 (human) [5] and in the test with G93D SOD1 (human) [6] was 2 each time.
Turning to “I35T SOD1 (from UniProt P00441 8-154) (enzyme)”, the stoichiometry N in the test with I35T SOD1 (human) [7] and in the test with I35T SOD1 (human) [8] was 2 throughout.
As for “I113F SOD1 (from UniProt P00441 8-154) (enzyme)”, the stoichiometry N with I113F SOD1 (human) [9] and with I113F SOD1 (human) [10] was 2 throughout.
As to “I113T SOD1 (from UniProt P00441 8-154) (enzyme)”, the stoichiometry N in the test with I113T SOD1 (human) [11] and in the test with I113T SOD1 (human) [12] was 2 each time.
For “L67V SOD1 (from UniProt P00441 8-154) (enzyme)”, the stoichiometry N with L67V SOD1 (human) [13] and in the test with L67V SOD1 (human) [14] was 2 in each case.
Regarding “L144F SOD1 (from UniProt P00441 8-154) (enzyme)”, the stoichiometry N in the test with L144F SOD1 (human) [15] and with L144F SOD1 (human) [16] was 2 each time.
On to “T54R SOD1 (from UniProt P00441 8-154) (enzyme)”, for which the stoichiometry N with T54R SOD1 (human) [17] and with T54R SOD1 (human) [18] was 2 in each case.
For “V87M SOD1 (from UniProt P00441 8-154) (enzyme)”, the stoichiometry N with V87M SOD1 (human) [19] and with V87M SOD1 (human) [20] was 2 each time.
For “V97M SOD1 (from UniProt P00441 8-154) (enzyme)”, the stoichiometry N with V97M SOD1 (human) [21] and with V97M SOD1 (human) [22] was 2 in each case.
